In article PMC7921785:

Molecular target: T1, rPcDp1 (recombinant Dp1) (Pseudosciaena crocea (large yellow …, UniProt D2CFQ6 1-412))
T1 sequence: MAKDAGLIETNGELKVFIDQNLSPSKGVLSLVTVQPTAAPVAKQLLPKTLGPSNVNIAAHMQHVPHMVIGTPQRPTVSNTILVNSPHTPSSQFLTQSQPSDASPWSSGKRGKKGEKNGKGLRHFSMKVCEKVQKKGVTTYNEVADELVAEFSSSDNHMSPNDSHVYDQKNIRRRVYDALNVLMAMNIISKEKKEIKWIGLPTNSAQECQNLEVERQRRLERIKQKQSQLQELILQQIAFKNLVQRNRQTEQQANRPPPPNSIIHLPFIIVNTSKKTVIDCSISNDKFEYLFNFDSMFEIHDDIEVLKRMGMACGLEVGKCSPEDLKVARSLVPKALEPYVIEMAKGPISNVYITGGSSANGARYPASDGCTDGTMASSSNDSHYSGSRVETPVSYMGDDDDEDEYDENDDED
Assay: EMSA

B1: wE2F (WE2Fsite) (dsDNA)
DNA 1: GAGATGACGTAGTTTTCGCGCGAAACTAG
DNA 2: CTAGTTTCGCGCGAAAACTACGTCATCTC
binding result: binds
